The supplement of paper PMC9732359
± gives the uncertainty stated by the source.

Experiment: protein stability index of a GFP-peptide fusion (yeast GPS) (PSI 1-4); higher = more stable; sorted into four equal gates, so the index is relative within each strain
Conditions: pdr5∆
In short: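 Plasmids in a pooled yeast library fused tiled 17-residue yeast protein peptides downstream of GFP and also expressed Cherry. Mid-log cultures grown without leucine were sorted into four equal gates by GFP/Cherry fluorescence ratio. Each gate's plasmids were PCR-amplified and Illumina-sequenced, and reads were matched to strains by barcodes. The protein stability index is derived by multiplying each gate's read frequency by its gate number and summing the results.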

With FSSNERYFFWLQEKNSG [RPN13] as the sequence, how does the protein stability index read?
Its protein stability index is 1.65 ± 0.072.

Same assay, conditions: san1∆

For ERVSPTDIEEGMRVGVD [RPT1], which protein stability index is on record?
Its protein stability index is 2.83 ± 0.096.

Which protein stability index does the source give for ESAPITAEDSWAVISAF [RPB2] here?
Its protein stability index is 2.91 ± 0.051.

With ESDLYKLKECPFDMGGY [RPB2] as the sequence, how does the protein stability index read?
Its protein stability index is 3.22 ± 0.068.

With ESDSKLQCHISGTTNFM [UBP6] as the sequence, how does the protein stability index read?
Its protein stability index is 2.92 ± 0.28.

Which protein stability index does the source give for ESDTGLAPSHLWDIMGD [RPT1] here?
Its protein stability index is 3.06 ± 0.12.

With ESGEFDFDLFKEVLPDL [YJL039C/NUP192] as the sequence, how does the protein stability index read?
The protein stability index was 3.17 ± 0.063.

For ESIDVDMDAESNESQNG [SMC3], which protein stability index is on record?
The protein stability index was 2.65 ± 0.066.

With ESKFILEALRQNYRLDG [RRP45] as the sequence, how does the protein stability index read?
Its protein stability index is 2.95 ± 0.28.

Which protein stability index does the source give for ESKGNAFKHKRALVEHI [RPL19A] here?
The protein stability index was 3.44 ± 0.047.

Which protein stability index does the source give for ESKQDGLSILFLTGQFA [YML103C/NUP188] here?
Its protein stability index is 2.88 ± 0.059.

With ESLTFNEFQLQWGKYQT [SWI1] as the sequence, how does the protein stability index read?
The protein stability index was 2.67 ± 0.045.

For ESNKRYRFFKKISEDPV [SNF12], which protein stability index is on record?
Its protein stability index is 2.99 ± 0.18.

For ESPLSVAIQQGDIKPEF [YML103C/NUP188], which protein stability index is on record?
The protein stability index was 1.95 ± 0.11.

Which protein stability index does the source give for ESQEKYMEPFDLDLNEQ [NSL1] here?
The protein stability index was 3.35 ± 0.041.

Which protein stability index does the source give for ESQYPIVTEQPSAEIRE [SWP82] here?
The protein stability index was 2.57 ± 0.047.

Which protein stability index does the source give for ESSKLMTVTKVSLPEGS [BRR2] here?
The protein stability index was 3.19 ± 0.1.

With ESVPTPANAEPQAVTIT [ITC1] as the sequence, how does the protein stability index read?
The protein stability index was 2.62 ± 0.063.

Which protein stability index does the source give for ETAKMIENMTKEKVSNG [FAS2] here?
Its protein stability index is 3.57 ± 0.091.

Which protein stability index does the source give for ETEEIDPELLRSYIFGG [RPL5] here?
The protein stability index was 3.3 ± 0.046.

For ETELPTLSLPDSQDYIL [SMC1], which protein stability index is on record?
Its protein stability index is 3.11 ± 0.037.

Which protein stability index does the source give for ETHETNISNAKLANFFS [YAR002W/NUP60] here?
Its protein stability index is 3.15 ± 0.073.

Which protein stability index does the source give for ETHSKKRKKEANEEPNT [ITC1] here?
Its protein stability index is 3.13 ± 0.058.

With ETKSWINESAENFSNGI [MED1] as the sequence, how does the protein stability index read?
Its protein stability index is 2.74 ± 0.056.

With ETNGYDPFSIYGFSNKE [SNF5] as the sequence, how does the protein stability index read?
Its protein stability index is 2.12 ± 0.083.

With ETPEGQACGLVKNLSLM [RPB2] as the sequence, how does the protein stability index read?
The protein stability index was 3.01 ± 0.11.

With ETQEIKENDTVMNTKLL [ESC2] as the sequence, how does the protein stability index read?
Its protein stability index is 2.88 ± 0.1.

For ETRPAQVILPMSPNHGT [FAS2], which protein stability index is on record?
Its protein stability index is 2.46 ± 0.071.

Which protein stability index does the source give for ETTIDDLPISSTDNEAI [SMC1] here?
Its protein stability index is 2.66 ± 0.053.

Which protein stability index does the source give for EVAVPDRVAKVLTYPEK [RPO31] here?
Its protein stability index is 2.88 ± 0.078.

With EVTDKNYYYLFDKKSFF [PRP8] as the sequence, how does the protein stability index read?
Its protein stability index is 2.9 ± 0.041.

With EVTEGQAEATEWAEENA [RPS0B] as the sequence, how does the protein stability index read?
Its protein stability index is 2.44 ± 0.17.

For EVTIEDALKVVLRTALV [RPS12], which protein stability index is on record?
The protein stability index was 3.35 ± 0.099.

Which protein stability index does the source give for EVTKEEDIIANYASVYP [RRP43] here?
The protein stability index was 3.06 ± 0.094.

Which protein stability index does the source give for EVTKSSHVENLEEKLYQ [YIL149C/MLP2] here?
The protein stability index was 2.93 ± 0.052.

Which protein stability index does the source give for EVYGINEESTNERLEIN [SIR4] here?
The protein stability index was 3.22 ± 0.16.

Which protein stability index does the source give for EWKSEFVVPTFGQDVSP [SNM1] here?
The protein stability index was 3.04 ± 0.063.

For EYNEDSRLCTPIPVQGE [RPN13], which protein stability index is on record?
Its protein stability index is 2.27 ± 0.14.

For EYQIVYYNPQAGTKITI [RGR1], which protein stability index is on record?
The protein stability index was 2.12 ± 0.13.

For FAGVASMNVTLGVPRIK [RPO31], which protein stability index is on record?
The protein stability index was 2.94 ± 0.079.

For FAISMGYLFKVSALDKC [ECM29], which protein stability index is on record?
The protein stability index was 1.91 ± 0.23.

Which protein stability index does the source give for FANYKLLLKKIIKDYVL [SRB4] here?
Its protein stability index is 1.97 ± 0.09.

With FDDILKVGAEMMMQQQL [MED2] as the sequence, how does the protein stability index read?
Its protein stability index is 2.53 ± 0.13.

For FDDLLKPVYKGKKLTDE [RET1], which protein stability index is on record?
Its protein stability index is 3.32 ± 0.12.

Which protein stability index does the source give for FDISMADLSSSEEEEDE [SSN2] here?
The protein stability index was 3.11 ± 0.1.

With FDKVIYHLHPTFANPNR [TAF14] as the sequence, how does the protein stability index read?
The protein stability index was 1.43 ± 0.22.

For FDNVASVFMPLIFIACN [ECM29], which protein stability index is on record?
Its protein stability index is 2.57 ± 0.045.

For FDPVYTTVITVFLEFSL [YML103C/NUP188], which protein stability index is on record?
Its protein stability index is 1.8 ± 0.072.

With FDSVIVENLTVAQECIA [SMC1] as the sequence, how does the protein stability index read?
The protein stability index was 1.84 ± 0.15.
